Measurements: the supplement of paper PMC10567573

B1: PRPH (parent)
chain: DEIEFLKKLHEEELRDLQVSVESQ
B2: CCDC6 (parent)
chain: TLFKKIQALQKEKETLAVNYEKEE

Variants of: B1
Experiment: protein stability index of a GFP-peptide fusion (GPS, HEK-293T) (PSI 1-6); higher = more stable
Conditions: c terminus: a fixed tail appended
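Also: lentivirally expressed fusions sorted by FACS into six bins by GFP to DsRed ratio, PSI derived from sequencing read proportions per bin multiplied by bin number.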

Protein stability index of substitutions, site by site:
E22: P 5.25, D 4.99, S 4.74, F 3.38, I 3.29, Y 3.75, V 4.18, W 3.29, L 3.88, C 4.93, M 4.27, H 4.5, N 4.48, A 4.47, Q 4.37, T 4.72, K 4.69, R 4.3, G 4.3
S23: K 4.5, Y 4.71, F 4.36, D 5.04, V 4.59, A 4.04, H 4.94, N 5.04, M 3.96, I 3.8, R 4.62, Q 4.11, T 4.95, L 4.54, P 4.71, C 4.55, G 5.13, W 3.45, E 4.67
V21: T 4.96, Q 4.39, W 4.36, P 4.95, Y 4.07, S 4.75, R 4.39
Q24: M 4.64, A 4.57, K 4.65, L 4.66, P 3.96, I 4.35, T 4.76, V 4.23, R 4.22, N 4.92, W 3.85, C 3.37, F 3.91, Y 3.64, G 4.48, E 4.57, D 4.46, S 4.26, H 4.52

Variants of: B2
Experiment: as above
Conditions: c terminus: a fixed tail appended

Protein stability index of substitutions, site by site:
L2: V 3.82, R 5.13, A 4.08, I 3.4, E 5.56, F 4.25, H 4.96, M 4.28, Y 3.74, S 4.83, C 4.55, K 5.2, G 5.25, D 5.26, W 3.68, Q 4.91, N 5.26, T 5.1, P 5.29
K4: F 3.44, Q 3.56, H 3.88, V 3.52, A 3.01, M 2.8, Y 2.58, S 3.82, P 4.83, L 3.05, W 2.74, E 3.33, T 4.27, D 4.37, R 3.35, I 2.76, C 2.73, N 3.68, G 3.75
Q10: A 3.17, E 4.41, K 3.08, Y 2.64, W 2.65, T 3.79, H 3.3, G 3.89, C 3.17, S 3.41, D 4.41, I 2.35, R 2.64, V 2.91, F 2.2, N 2.89, P 3.99, M 2.42, L 2.45
K11: A 3.23, E 3.69, D 3.79, W 2.28, P 4.1, Y 2.66, C 3.12, L 3.05, H 3.28, F 2.94, G 3.71, Q 3.21, T 2.89, I 2.85, N 3.55, R 2.59, M 2.78, V 2.81, S 3.36
T15: D 3.89, A 2.97, C 2.84, F 2.06, E 3.77
E12: Y 2.11, F 1.85, H 2.63, A 2.66, M 2.49, T 2.62, K 2.59, D 3.37, Q 2.64, R 2.75, P 3.66, C 2.1, V 2.52, I 2.27, G 3.05, L 1.97, S 2.63, N 3.09, W 1.81
Q7: G 3.51, I 2.6, F 2.3, N 4.02, S 3.65, R 2.98, E 3.57, W 1.99, D 4.38, V 2.7, T 3.54, H 3.18, K 3.31, A 2.85, M 2.73, C 2.73, Y 2.55, P 4.7, L 2.71
T1: L 2.38, I 2.69, F 2.64, V 3.12, Q 2.84, E 3.67, S 2.92, K 3.06, G 3.73, W 1.88, H 3.48, M 2.51, R 3.04, C 3.34, A 3.85, D 4.01, N 4.12, P 3.71, Y 3.01
A8: R 3.38, V 4.34, D 3.51, P 4.25, G 3.72, N 3.75, K 3.88, S 3.47, E 4.05, F 3.54, C 3.15, H 3.25, I 3.4, T 3.49, M 2.69, Y 2.75, Q 3.23, W 2.75, L 3.4
E14: T 2.55, Y 2.05, L 1.97, F 2.16, Q 3.11, I 2.25, P 2.64, K 2.94, A 2.6, M 2.27, N 3.15, H 2.58, V 2.6, W 2.03, C 2.89, S 2.46, G 3.1, D 3.25, R 2.6
L9: I 3.57, N 4.55, M 2.74, D 4.67, S 4.05, C 4.33, V 4.22, H 3.88, F 3.46, Q 4.48, Y 3.23, G 3.92, P 5.08, R 4.25, E 4.37, K 4.35, W 3.5, A 3.92, T 4.6
I6: R 4.79, M 4.32, E 5.39, P 4.78, N 4.36, F 3.99, V 3.85, G 5.06, S 4.81, D 5.34, T 4.75, A 4.59, Q 4.28, L 3.59, C 4.44, Y 3.93, K 4.92, W 3.4, H 4.17
K5: D 4.85, I 1.79, E 4.27, Q 3.36, A 2.43, R 2.75, S 3.47, F 1.61, P 4.74, T 2.95, Y 2.15, C 2.52, G 4.19, L 2.27, N 3.78, W 3.67, V 1.76, H 2.88, M 2.22
K13: S 3.23, E 3.78, Q 3.13, R 3.49, P 3.51, I 2.2, W 1.91, L 1.93, T 3.4, A 2.58, V 1.84, G 3.73, N 3.17, D 3.96, C 2.28, Y 2.09, M 2.65, H 2.81
F3: R 4.38, V 3.76, S 4.62, G 5.23, I 3.51, A 4.68, D 5.28, E 5.42, Q 4.78, C 3.62, M 3.41, W 2.26, K 4.78, Y 3.67, L 3.08, T 5.1, H 4.9, N 4.59, P 5.44
